Data as given in patent publication US20230287109A1.
pKd: −log10 of the molar value.

How the values were obtained:
[1] = biological target: recombinant human VEGF (human) (UniProt P15692); assay: cell-based or functional assay
[2] = biological target: rabbit VEGF (rabbit) (UniProt G1T1L9); assay: SPR, summary table, column Rabbit VEGF, Kd [M]

Chain of recombinant human VEGF (human) (P15692 other isoform, or with tags, fused parts or gaps limits assumed): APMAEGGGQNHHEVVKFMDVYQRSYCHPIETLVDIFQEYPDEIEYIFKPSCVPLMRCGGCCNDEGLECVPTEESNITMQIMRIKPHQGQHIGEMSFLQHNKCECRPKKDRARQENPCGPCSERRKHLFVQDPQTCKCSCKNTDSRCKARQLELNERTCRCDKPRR

IC50, VEGF reporter assay (KDR/NFAT-RE HEK293 cells, luminescence) [1]: 0.75 nM
pKd [2]: 8.85
Substance: aflibercept (Fc fusion)
